Results reported in publication PMC7272049.

Experiments:
B7-1 (Homo sapiens) = B7-1 (Homo sapiens) (UniProt P33681); conditions: cited from earlier work
B7-1 (Mus musculus) = B7-1 (Mus musculus) (UniProt Q00609); conditions: cited from earlier work
mB7-1 mIgG2a = mB7-1 mIgG2a (UniProt Q00609); assay: FACS titration; conditions: cells expressing PD-L1 titrated with recombinant B7-1 Fc-fusion; anti-mouse Alexa 488 secondary; single-site binding model
mPD-1 mIgG2a = mPD-1 mIgG2a (UniProt Q02242); assay: FACS titration; conditions: cells expressing PD-L1 titrated with recombinant PD-1 Fc-fusion; anti-mouse Alexa 488 secondary; single-site binding model

Sequence of PD-L1 (Q9EP73 19-239): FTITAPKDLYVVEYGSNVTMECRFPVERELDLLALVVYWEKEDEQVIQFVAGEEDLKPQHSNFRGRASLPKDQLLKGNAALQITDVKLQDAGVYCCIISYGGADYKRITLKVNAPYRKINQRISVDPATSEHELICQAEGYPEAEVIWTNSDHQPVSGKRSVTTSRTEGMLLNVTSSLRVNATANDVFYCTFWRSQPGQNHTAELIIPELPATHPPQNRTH
Sequence of B7-1 (P33681 35-242): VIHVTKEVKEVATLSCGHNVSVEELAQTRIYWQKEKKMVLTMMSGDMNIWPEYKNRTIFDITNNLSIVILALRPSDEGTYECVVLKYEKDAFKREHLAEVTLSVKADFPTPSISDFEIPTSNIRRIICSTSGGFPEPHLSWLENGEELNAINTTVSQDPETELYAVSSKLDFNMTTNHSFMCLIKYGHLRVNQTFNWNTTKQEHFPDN

Question: For B7-1 (from UniProt P33681), which Kd (B7-1 (Homo sapiens)) is on record?
Answer: 35 µM

Question: With PD-L1 (from UniProt Q9EP73) as the substance, how does the Kd (B7-1 (Mus musculus)) read?
Answer: 1.6 µM

Question: For “WT mPD-L1 mCherry (from UniProt Q9EP73) D28R”, which other: Bmax (mB7-1 mIgG2a) is on record?
Answer: 73.1

Question: What about the other: Bmax (mPD-1 mIgG2a) of the same substance?
Answer: 93.4
